Test results: patent US6348573B1, “Compositions and methods for identifying apoptosis signaling pathway inhibitors and activators” (The Regents of the University of Michigan, priority 1998, dated 2002)
Like-named read-outs stand apart in the source and are kept apart here. Peptide text beside a SMILES is read from it. * marks the point of attachment. Cbz = O=C(OCc1ccccc1)*; CH2F = FC*

Assays:
293T cells [1] = test: Apoptosis assay, CIDE transfection; assay type: cell-based, human
Description: Apoptosis Assays, fluorescence staining of nuclear DNA and DNA fragmentation assay: 5×10^5 293T cells were co-transfected with 0.2 μg of pcDNA3-β-gal plus each expression plasmid in triplicate by the calcium phosphate method as reported [N. Inohara et al, “CLARP, a death effector domain-containing protein interacts with caspase-8 and regulates apoptosis,” Proc. Natl. Acad. Sci. USA 94:10717-10722 (1997a)].
MCF7 were cotransfected with vector control or CIDE-A and β-galactosidase-expressing reporter construct by Lipofectamine (Gibco BRL) according to the manufacturer's instructions. In some experiments, 20 μM zVAD-fmk (benzyloxycarbonyl-Val-Ala-Asp-(OMe)-fluoromethylketone), zFA-fmk (benzyloxycarbonyl-Phe-Ala-(OMc)-fluoromethylketone) and zDEVD-fmk (benzyloxycarbonyl-Asp-Glu-Val-Asp-(OMe)-fluoromethylketone) were added into medium at 8 hr after transfection. zFA-fmk, zVAD-fmk and zDEVD-fmk were obtained from Enzyme Systems. At 24 hours after transfection, cells were fixed, stained for β-galactosidase as described [N. Inohara et al., “CLARP, a death effector domain-containing protein interacts with caspase-8 and regulates apoptosis,” Proc. Natl. Acad. Sci. USA 94:10717-10722 (1997a)] and assayed for morphological features of apoptosis. At least 300 hundred blue-staining cells were counted. Statistical significance was determined by one-way ANOVA followed by Student-Neuman-Keuls post-doc comparisons.
Nuclear staining with acridine-orange was performed as described [N. Inohara et al., “harakiri, a novel regulator of cell death, encodes a protein that activates apoptosis and interacts selectively with survival-promoting proteins Bcl-2 and Bcl-XL.,” EMBO J. 16:1686-1694 (1997b)]. Genomic DNA was extracted and analyzed for DNA fragmentation as described [X. Liu et al., “Apaf-1, a human protein homologous to C. elegans CED-4, participates in cytochrome c-dependent activation of caspase-3,” Cell 90:405-413 (1997)].

293T cells [2] = test: Apoptosis assay, RICK co-transfection; assay type: cell-based, human; conditions: for caspase-8-induced apoptosis potentiated by RICK: 293T cells, zVAD-fmk 20 μM added at 8 hrs after transfection, p35 by expression plasmid
Description: The total amount of transfected plasmid DNA was adjusted with pcDNA3 plasmid to be the same within individual experiments. After transfection, 293T cells were harvested at different times and lysed with 0.2% NP-40 isotonic lysis buffer [N. Inohara et al., Proc. Natl. Acad. Sci. U.S.A. 94:10717-10722 (1997)]. The B lymphocyte-derived BJAB cell line was stably trasnfected by electroporation with pcDNA3 or pcDNA3-Flag-RICK (K38M). After selection with […] (1 μg/ml), bulk cell lines were tested for RICK protein expression with anti-Flag antibody by flow cytometric analysis. For immunoprecipitation, 1 mg of soluble protein was incubated with 10 μg/ml of polyclonal anti-Flag, anti-myc or control antibody overnight at 4° C. and tagged proteins were immunoprecipitated with Protein A-Sepharose 4B (Zymed Laboratories Inc.). Immunoprecipitated proteins or total lysates were subjected to 12% SDS-polyacrylamide electrophoresis and immunoblotted with monoclonal antibodies (mAb) to HA (Boeringer Mannheim) or Flag (Kodak).
Apoptosis Assays: 5×10^5 293T cells were co-transfected with 0.2 μg of pcDNA3-β-gal plus each expression plasmid in triplicate by the calcium phosphate method as reported [N. Inohara et al., Proc. Natl. Acad. Sci. U.S.A. 94:10717-10722 (1997)]. In some experiments, 20 μM of the caspase inhibitor zVAD-fmk (Enzyme Systems Products) or 12.5 μl of medium from […] cells producing Fas ligand (Immunex Corporation, Seattle, Wash.) was added at 8 hrs after transfection. At 18 or 24 hours after transfection, cells were fixed, stained for β-galactosidase as described [N. Inohara et al., Proc. Natl Acad. Sci. U.S.A. 94:10717-10722 (1997)] and assayed for morphological features of apoptosis. At least 300 hundred blue-staining cells were counted. BJAB apoptosis induced by anti-Apol mAb was determined by flow cytometric analysis of nuclei stained with propidium iodide as described [R. Merino et al., J. Immunol. 155:3830-3838 (1995)]. Statistical significance was determined by one-way ANOVA followed by Student-Neuman-Keuls post-doc comparisons.

[3] = target: T1, Flag-tagged RICK (RIP-like interacting CLARP kinase), pcDNA3-Flag-RICK (human, UniProt O43353 11-540, limits assumed); test: anti-Flag immunoprecipitation from co-transfected 293T cells, anti-HA immunoblot
T1 construct: Entire open reading frame of RICK, expressed in 293T cells; also called CIPERK; Flag-CIPERK; not shown: N-terminal Flag tag
T1 sequence (O43353 other isoform, or with tags, fused parts or gaps limits assumed): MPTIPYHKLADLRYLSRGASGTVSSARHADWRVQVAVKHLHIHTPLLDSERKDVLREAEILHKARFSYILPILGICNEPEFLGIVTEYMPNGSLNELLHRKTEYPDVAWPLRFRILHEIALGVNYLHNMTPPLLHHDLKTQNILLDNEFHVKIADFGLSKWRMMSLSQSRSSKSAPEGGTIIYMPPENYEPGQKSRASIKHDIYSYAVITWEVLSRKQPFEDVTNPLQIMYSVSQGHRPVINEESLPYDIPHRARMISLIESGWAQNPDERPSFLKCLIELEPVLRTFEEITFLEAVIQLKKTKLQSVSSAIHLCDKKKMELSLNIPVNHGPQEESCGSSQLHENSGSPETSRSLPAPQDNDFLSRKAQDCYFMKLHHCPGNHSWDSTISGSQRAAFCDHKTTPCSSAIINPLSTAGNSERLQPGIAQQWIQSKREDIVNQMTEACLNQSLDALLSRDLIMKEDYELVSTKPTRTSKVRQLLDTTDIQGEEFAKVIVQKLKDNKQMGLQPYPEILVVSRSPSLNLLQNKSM

293T cells [4] = test: β-galactosidase apoptosis assay, ARC co-transfection; assay type: cell-based, human
Description: Briefly, 2 μg of pcDNA3 or pcDNA3-ARC-Flag or -HA was co-transfected with 3 μg of pcDNA3 or caspase expression plasmids. Total amount of transfected plasmid DNA was always 5 μg. 293T cells were harvested after 22 hr and lysed with 0.2% NP-40 isotonic lysis buffer [Z. N. Oltvai et al., Cell 74:609-619 (1993)]. For immunoprecipitation, […] of soluble protein was incubated with 10 μg/ml of polyclonal anti-Flag, monoclonal anti-AU1 or polyclonal anti-HA antibody for 2 hr at 4° C. and tagged proteins were immunoprecipitated with Protein A-Sepharose 4B (Zymed Laboratories Inc., San Francisco, Calif.). Immunoprecipitates were subjected to 12% SDS-polyacrylamide electrophoresis and immunoblotted with anti-Flag, anti-AU1 or anti-HA antibodies. β-galactosidase apoptosis assay and Caspase-8 enzymatic assay: 5×10^5 293T cells were transfected with 0.3 μg of pcDNA3-β-gal plus each expression plasmid in triplicate. Cells were fixed 16 hrs after transfection, stained for β-galactosidase and assayed for morphological features of apoptosis [M. Muira et al., Cell 75:653-660 (1993)]. Statistical significance was determined by one-way ANOVA followed by Student-Neuman-Keuls post-doc comparisons. For caspase-8 enzymatic assay, 1.5×10^6 human 293T cells were co-transfected with pcDNA3, pcDNA3-ARC-Flag, pcDNA3-caspase-8 and pcDNA3-caspase-8-mt by a calcium phosphate method. Total amount of transfected plasmid DNA was always 2.5 μg. 293T cells were harvested 18hr after transfection and lysed with 0.2% NP-40 isotonic lysis buffer. Tagged proteins were immunoprecipitated and caspase activity was measured as described [N. Inohara et al., Proc. Natl. Acad. Sci. USA 94:10717-10722 (1997)].

Q: With `COC(=O)CC[C@H](NC(=O)[C@H](CC(=O)OC)NC(=O)OCc1ccccc1)C(=O)N[C@H](C(=O)N[C@@H](CC(=O)OC)C(=O)CF)C(C)C` [zDEVD-fmk, benzyloxycarbonyl-Asp-Glu-Val-Asp-(OMe)-fluoromethylketone, reference compound] as the molecule, how does the “killing activity of CIDE-A in presence of caspase inhibitors” value (293T cells [1]) read?
A: Its value is “unaffected”.

Q: What does the source list for `COC(=O)CC(NC(=O)C(C)NC(=O)C(NC(=O)OCc1ccccc1)C(C)C)C(=O)CF` (stereo not drawn) [zVAD-fmk, benzyloxycarbonyl-Val-Ala-Asp-(OMe)-fluoromethylketone, reference compound] (Cbz-Val-Ala-Asp(OMe)-CH2F; configuration not given here)?
A: caspase-8-induced apoptosis potentiated by RICK (293T cells [2]): inhibited; apoptosis induced by caspase-8 (293T cells [1]; 293T cells, control experiment, same concentration (20 μM)): inhibited; killing activity of CIDE-A in presence of caspase inhibitors (293T cells [1]; 293T cells, peptide inhibitors 20 μM added at 8 hr after transfection, CrmA by plasmid): unaffected

B1: caspase-3, epitope-tagged (enzyme, UniProt P42574 1-277, looked up)
chain: MENTENSVDSKSIKNLEPKIIHGSESMDSGISLDNSYKMDYPEMGLCIIINNKNFHKSTGMTSRSGTDVDAANLRETFRNLKYEVRNKNDLTREEIVELMRDVSKEDHSKRSSFVCVLLSHGEEGIIFGTNGPVDLKKITNFFRGDRCRSLTGKPKLFIIQACRGTELDCGIETDSGVDDDMACHKIPVEADFLYAYSTAPGYYSWRNSKDGSWFIQSLCAMLKQYADKLEFMHILTRVNRKVATEFESFSFDATFHAKKQIPCIVSMLTKELYFYH
notes: also called pcDNA3-caspase-3-Flag; not shown: position and
Q: Does B1 bind [3]?
A: Result: no binding

B2: baculovirus p35: broad-based caspase inhibitor protein of baculovirus, expressed from plasmid (protein, UniProt P08160 1-299, looked up)
Early 35 kDa protein: MCVIFPVEIDVSQTIIRDCQVDKQTRELVYINKIMNTQLTKPVLMMFNISGPIRSVTRKNNNLRDRIKSKVDEQFDQLERDYSDQMDGFHDSIKYFKDEHYSVSCQNGSVLKSKFAKILKSHDYTDKKSIEAYEKYCLPKLVDERNDYYVAVCVLKPGFENGSNQVLSFEYNPIGNKVIVPFAHEINDTGLYEYDVVAYVDSVQFDGEQFEEFVQSLILPSSFKNSEKVLYYNEASKNKSMIYKALEFTTESSWGKSEKYNWKIFCNGFIYDKKSKVLYVKLHNVTSALNKNVILNTIK
Q: B2 was tested. Which “caspase-8-induced apoptosis potentiated by RICK” value (293T cells [2]) did it give?
A: The value was “inhibited”.

B3: human caspase-2, epitope-tagged (enzyme, UniProt P42575 18-452, looked up)
chain: MAADRGRRILGVCGMHPHHQETLKKNRVVLAKQLLLSELLEHLLEKDIITLEMRELIQAKVGSFSQNVELLNLLPKRGPQAFDAFCEALRETKQGHLEDMLLTTLSGLQHVLPPLSCDYDLSLPFPVCESCPLYKKLRLSTDTVEHSLDNKDGPVCLQVKPCTPEFYQTHFQLAYRLQSRPRGLALVLSNVHFTGEKELEFRSGGDVDHSTLVTLFKLLGYDVHVLCDQTAQEMQEKLQNFAQLPAHRVTDSCIVALLSHGVEGAIYGVDGKLLQLQEVFQLFDNANCPSLQNKPKMFFIQACRGDETDRGVDQQDGKNHAGSPGCEESDAGKEKLPKMRLPTRSDMICGYACLKGTAAMRNTKRGSWYIEALAQVFSERACDMHVADMLVKVNALIKDREGYAPGTEFHRCKEMSEYCSTLCRHLYLFPGHPPT
notes: also called AU1-tagged caspase-2; not shown: lette
Q: Does B3 bind [3]?
A: Result: no binding

B4: CIDE-A (1-107): CIDE-A mutant containing the N-terminal half with homology to DFF45 (protein, UniProt O70302 1-107, looked up, fragment)
chain: METARDYAGALIRPLTFMGLQTKKVLLTPLIHPARPFRVSNHDRSSRRGVMASSLQELISKTLDVLVITTGLVTLVLEEDGTVVDTEEFFQTLRDNTHFMILEKGQK
Q: B4 was tested. Which “induction of apoptosis (killing) of 293T cells by expression” value (293T cells [1]; 293T cells) did it give?
A: Its value is “did not”.

Q: And the “inhibition of CIDE-A-induced apoptosis by DFF45” value (293T cells [1]; 293T cells, co-expression)?
A: Its value is “antagonized”.

B5: truncated form of ARC: truncated form of ARC that expressed the CARD domain (amino acid 1-106) (protein, UniProt O60936 1-106, looked up, fragment)
chain: MGNAQERPSETIDRERKRLVETLQADSGLLLDALLARGVLTGPEYEALDALPDAERRVRRLLLLVQGKGEAACQELLRCAQRTAGAPDPAWDWQHVGPGYRDRSYD
Q: With B5 as the molecule, how does the “ability to suppress apoptosis induced by caspase-4, compared with full length ARC” value (293T cells [4]) read?
A: The value was “no significant difference”.

Q: And the “ability to suppress apoptosis induced by caspase-8, compared with full length ARC” value (293T cells [4])?
A: Its value is “no significant difference”.

B6: CIDE-A (108-200): CIDE-A mutant containing the C-terminal half (protein, UniProt O70302 108-200, looked up, fragment)
chain: WTPGSKYVPVCKQPKKSGIARVTFDLYRLNPKDFLGCLNVKATMYEMYSVSYDIRCTSFKAVLRNLLRFMSYAAQMTGQFLVYAGTYMLRVLG
Q: B6 was tested. Which “induction of apoptosis (killing) of 293T cells by expression” value (293T cells [1]; 293T cells) did it give?
A: Its value is “capable of inducing apoptosis”.

Q: What about the “killing activity compared with wild-type CIDE-A” value (293T cells [1]; 293T cells) of the same molecule?
A: The value was “greater”.

B7: deletion mutant missing the C-terminal 165 amino acids: RICK deletion mutant missing the C-terminal 165 amino acids that span the CARD domain (protein, UniProt O43353 1-365, looked up, fragment)
chain: MNGEAICSALPTIPYHKLADLRYLSRGASGTVSSARHADWRVQVAVKHLHIHTPLLDSERKDVLREAEILHKARFSYILPILGICNEPEFLGIVTEYMPNGSLNELLHRKTEYPDVAWPLRFRILHEIALGVNYLHNMTPPLLHHDLKTQNILLDNEFHVKIADFGLSKWRMMSLSQSRSSKSAPEGGTIIYMPPENYEPGQKSRASIKHDIYSYAVITWEVLSRKQPFEDVTNPLQIMYSVSQGHRPVINEESLPYDIPHRARMISLIESGWAQNPDERPSFLKCLIELEPVLRTFEEITFLEAVIQLKKTKLQSVSSAIHLCDKKKMELSLNIPVNHGPQEESCGSSQLHENSGSPETSRSLP
Q: For B7, which “apoptosis of 293T cells induced by Fas, Fas plus FasL or caspase-8” value (293T cells [2]; co-expression with RICK deletion mutants) is on record?
A: The value was “did not enhance apoptosis”.
